According to the nanobody polyreactivity screen of Harvey et al. (2022):

Assay: yeast display, Sf9 membrane polyspecificity reagent, FACS + sequencing; frameworks hold sequencing errors
Procedure, shortened: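 In a synthetic yeast display library (Saccharomyces cerevisiae BJ5465), nanobody expression was induced with galactose for 36–48 hours. FACS gates were set low and high (top ~1%) using anti-HA fluorescence for expression and streptavidin fluorescence for binding of the Sf9 membrane reagent. Each polyreactivity label is drawn from the gate of origin.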

## QVHLVESGGGLVQAGGSLRLSCAASGSTFFQYAMGWYRQAPGKERELVAAISSRGGRTYYADSVKGRFTISRDNAKNTVYLQMNRLKPEDTAVYYCATNRSVSYPYDGYYYWGQGTQVTVSS
  polyreactivity (PSR sort gate): high polyreactivity

## QVQLVESGGGLVQAGGSLRLSCAASGRIFTKYAMGWYRQAPGKERELVAGINWRDGRTYYADSVKGRFTLSRDNAKNTVYLQMISLKPVDTAVYYCAGVSIFGRRWMYYWGQGTQVTVSS
  polyreactivity (PSR sort gate): high polyreactivity

## QVQLVESGGGLVQAGGSLRLSCAASGRTFIYYAMGWYRQAPGKERELVAGISRNGGRTYYADSVKGRFTISRDNAKNTVYLQMNSLKPEDTAVYYCNARTYSYRGYNYWGQGTQVTVSS
  polyreactivity (PSR sort gate): high polyreactivity

## QVQLVESGGGLVQAGGSLRLSCAASGHIFTRNAMGWYRQAPGKERELVAAISRTGGSTYYADSVKGRFTISRDNAKNSVYLQMNSLKPEDTAVYYCAKRRQASEDYWGQGTQVTVSS
  polyreactivity (PSR sort gate): high polyreactivity

## QVHLAESGGGLVQAGGSLRLSCASSGIIFYFYAMGWYRQAPGKERELVAAISGTGGRTYYADSVKGRFTISRDNAKNTVYLQMNSLKPEDTAVYYCNADDTPVPSIRFDYWGQGTQVTVSS
  polyreactivity (PSR sort gate): low polyreactivity

## QVQLVESGGGLVQAGGSLRLSCAASGRTLRIYAMGWYRPAPGNERELVAAITGSGGSTDYADSVKGRFTISRDNAKNTVYLQMNILKPEDTAVYYCNAGKTIDYRDGVGYDHWGQGTQVTVSS
  polyreactivity (PSR sort gate): low polyreactivity

## QVQLVESGRGLVQAGGSLRLSCAASGITFVRYAMGWYRQAPGKEREFVAAITTSGGSTYYADSVKGRFTISRDNAKYSVYLQLNSLKPEDTAVYYCAARANAASRTFNYWGQGTQVTVSS
  polyreactivity (PSR sort gate): high polyreactivity

## QVQLVESGGGLVQAGGSLRLSCAASGLIFGKYAMGWYRQAPGKERELVAAITSSGGGTYYADSVKGRFTISRDNAKNTVYLQMNSLKPEDTAVYYCATGPDPKYDYWGQGTQVTVSS
  polyreactivity (PSR sort gate): high polyreactivity

## QVQLVESGGGLVQAGGSLRFSCAASGSIFGTYAMGWYRQAPGKERELVAAITGNGGRTYYADSVKGRFTISRDNAKNTVYLQMNSLKPEDTAVYYCAKATSRRGFYYWGQGTQVTVSS
  polyreactivity (PSR sort gate): high polyreactivity

## QVQLVESGGGLVQAGRTLRLSCAASGRTLGLYAMGWYRQAPGKERELVAAITTSGGSTSYADSVKGRFTISRDNAKNTVYLEMNSLKPEDTSVYYCAVDVEVTFFQYSWIYGSWGQGTQVTVSS
  polyreactivity (PSR sort gate): low polyreactivity

## QVHLVESGGGLVQAGGSLRLSCAASGSILARYAMGWYRQAPRKERELVASITTSGDSTYYADSVKGRFTISRDNAKNTVSLQMNSLIPEDTAVYYCARRRWGWGYQHFPYYYWGQGTQVTVSS
  polyreactivity (PSR sort gate): high polyreactivity

## QVQLVESGGGLVQAGGSLRLSCAASGIISIFNVMGWYRQAPGKERELVASITGRGGSTFYADSVKGRFTISRDNAKNTDYLQLNSLIPEDTAVYYCATDTGYTYPVTGLYDYWGQGTQVTVSS
  polyreactivity (PSR sort gate): low polyreactivity

## QVQHVESGGVLVQAGGSLRLSCAASGSIFVIYAMGWYRQAPGQEWELVAAINRGSTNYADSVKGRFTISRDNAKNTVYLQMNSLKPEDTAVYYCAAYGRYGFGRVERYDYWGLGTQVTVSS
  polyreactivity (PSR sort gate): high polyreactivity

## QVQLVESVGGLVQAGGSLRLSCAASGSNFPPYAMGWYRQAPGKERELVAAITSTDSTDYADSVKGRFTISRDNAKNTVYLQMNSLKPEDTAVYYCAAATGTYGRGGYYWGQGTQVTVSS
  polyreactivity (PSR sort gate): high polyreactivity

## QEKHVESGGGLVQAGGSLLLSCAASGLTFYHNAMGWYRQAPGKERELVAAISSGGTTNYADSVKGRFTISRDNAKNTVYLQMNSLTPEDTAVYYCAARGWGPTRAYDYWGQGTQVTLSS
  polyreactivity (PSR sort gate): high polyreactivity

## QVQLVESGGGLVQAGGSLRLSCAASGFTFGGYAMGWYRQAPGKERELVARIRRSGGSTYYADSVKGRFTISRDNAKNTVYLQMNSLKPEDTAVYYCAAGYSRGQYRYNYWGQGTQVTVSS
  polyreactivity (PSR sort gate): high polyreactivity

## QVQLVSGGGLVQAGGSLRLSCAASGRIFVSYAMGWYRQAPGKERELVADISSDGSTNYADSVKGRFTISRDNAKNTVYLQMNSLKPEDTAVYYCAVEVVRVYRYDYWGQGTQVTVSS
  polyreactivity (PSR sort gate): low polyreactivity

## QVQLVESGGGLVQAGGSLRLSCAASGFTFWDYAMGWYRQAPGKERELVAAISSRGTRTYYADSVKGRFTISRDNAKNTVYLQMNSLKPEDTAVYYCATAIPDPDYIHNYWGQGTQVTVSS
  polyreactivity (PSR sort gate): high polyreactivity

## QVQLVDSGGGLVQAGGSLRLSCAASGIIFVGYAMGWYRQAPGKERELVAAITYNVGSTYYADSVKGRFTISRDNAKNTVYLQMKSLKPEDTAVYYCNADRYPFFDLLISRYGSNPYDYWGQGTQVTVSS
  polyreactivity (PSR sort gate): low polyreactivity

## QVQLVESGGGLVQAGGSLRLSCAASGSTLRYYAMGWYRQAPGKERELVAAITYSAGRTSYADSVKGRFTISRDNAKNTVYLQMNSLKPEDTAVYYCATQWHSYLRRYDYWGQGTQVTVSS
  polyreactivity (PSR sort gate): low polyreactivity

## QVQLVESGGGLVQAGGSLRLSCAASGSIFVVYAMGWYRQPPGKERELVAAIDSGGSTYYADSVKGRFTISRDNAKNTVYLQLNSLKPEDTAVSYCADDGSTWGDYRTYGYWGQGTQVTVSS
  polyreactivity (PSR sort gate): low polyreactivity

## QVQLVESGGGLVQAGGSLRLSCAASGSIFTWNAMGWYSQAPGKERELVAAISWIGDSTYYADSVKGRFTISRDNAKNTVYLQMNSLKPEDTAVYYCAAEYAQGSRELESWGQGTQVTVSS
  polyreactivity (PSR sort gate): low polyreactivity

## QVQLQESGGGLVQAGGSLRMSCAASGKIFDADIMGWYRQAPGKERELVASNTDGRRTNYADSVKGRYTISRDSEKNTVYLQMNSLKAEDTAEYYCAAIAYPVVPTSFDYDSDYFHWGQGTQVTVSS
  polyreactivity (PSR sort gate): high polyreactivity

## QVQLVESGGGLVQAGGSLRLSCAASGGIFNRYAMGWYRPAPGKERELVAGITRSGGSTSYADSVKGRFTISRDNAKNTVYLQMNSLKPEDTAVYYCNKVAYYASSSYYRFGAYGYWGQGTQVTVSS
  polyreactivity (PSR sort gate): high polyreactivity

## QVQLVESGGGLVQAGGSLRLSCAASGFIIYFNAMGWYRQPRGKERELVASITSGASTNYADSVKGRFTISRDNAKNTVYLQMNSLKPEDTAVYYCAAAYFWLDPYVEYDYWGQGTQVTVSS
  polyreactivity (PSR sort gate): low polyreactivity

## QVQLVESGGGIVQAGGSLRLSCAASGFTFEKNAMGWYRQAPGKERELVAAISRGGSTYADSVKGRFRISRDNAKNTVYLQMNSLKPEDTAVYYCAADTVYIFSSAINGEFGYWGQGTQVTVSS
  polyreactivity (PSR sort gate): low polyreactivity

## QVQLVESGGGLVQAGGSLRLSCAASGRIFRYYAMGWYRQAPAKERELVASISRRGGSTNYADSVKGRFTISRDNAKNTVYLQMNSLKPEDTAVYYCNAENWSPRGLYNYWGQGTQVTVSS
  polyreactivity (PSR sort gate): high polyreactivity

## QVQLVESGGGLVQAGGSLRLSCAASGRTFGYNAMGWYRQAPGKERELVAAIRTIGDSTYYADSVKGRFTISRDNAKNSVYLQMNSLKPEDTAVYYCAARKLRSRYDYWGQGTQVTVSS
  polyreactivity (PSR sort gate): high polyreactivity

## QVQLVESGGGLVQAGGSLRLSCAASGRIFYVYGMGWYRQAPGKERELVGAISKRGDNTYYADSVKGRFTISRDNAKNTVYLQMNSLNPEDTAVYYCNVKRYGGRSDYWGQGTQVTVSS
  polyreactivity (PSR sort gate): high polyreactivity

## QDQLVESRGGLVQAGGSLRLSCAASGFTFYRYAMGWYRQAPGKERELVAAITWRGTSTYYADSVKGRFTISRDNAKNTVYLQMNSLKPEDTAVYYCNADRGYKYDYWGQGTQVTVSS
  polyreactivity (PSR sort gate): high polyreactivity

## QVQLVESGGGLVQAGGSLRLSCAASGSIFHPYAMGWYRQAPGKERELVAAISGGGTNTYYADSVKGRFTISRDNAKNTVYLQMNSLKPEDTAVYYCAAERYYWGQGTQVTVSS
  polyreactivity (PSR sort gate): high polyreactivity

## QFQLVESGRGIVQAGGSLRLSCAASGFTFGPSAMVWYRQAPGKERELVAVISRSGGRTYYADSVKGRFTISRDNAKNTVYLQMNSLKPEDTAVYYCAAAGYGNDGYDYWGQGTQVTVSS
  polyreactivity (PSR sort gate): high polyreactivity
